According to patent US12617816B2 (priority 2019, dated 2026):
Read-outs that look alike come from different tables or passages of the source.

What was measured:
[1] = test system: MOR; design: species or system mice; conditions: in vivo
[2] = target: T1, human mu-opioid receptor (Homo sapiens, UniProt P35372); test: cell-based; assay type: binding
T1 construct: host or cells: CHO-K1

[3] = target: MOR (Homo sapiens, UniProt P35372)
[4] = in vivo; conditions: mouse, iv
[5] = target: T1, human mu-opioid receptor; assay type: cell-based
[6] = mouse, in vivo
[7] = in vivo; cited from earlier work

T1 sequence (P35372 whole entry): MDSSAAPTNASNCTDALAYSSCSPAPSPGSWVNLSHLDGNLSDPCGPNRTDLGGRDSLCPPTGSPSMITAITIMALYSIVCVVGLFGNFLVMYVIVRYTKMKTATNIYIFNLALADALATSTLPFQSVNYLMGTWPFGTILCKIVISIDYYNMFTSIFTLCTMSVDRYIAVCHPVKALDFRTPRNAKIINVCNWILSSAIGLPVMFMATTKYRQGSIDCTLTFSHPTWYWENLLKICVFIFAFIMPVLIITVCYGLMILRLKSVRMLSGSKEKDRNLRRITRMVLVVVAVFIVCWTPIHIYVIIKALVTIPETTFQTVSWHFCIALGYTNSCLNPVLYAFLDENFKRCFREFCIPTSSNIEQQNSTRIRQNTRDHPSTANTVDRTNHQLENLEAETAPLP
Sequence of MOR (Homo sapiens, UniProt P35372) (P35372 whole entry): as above

| Structure (SMILES) | ratio of enhancement, wildtype to knockout mouse [1] [×] | enhancement in wildtype compared to knockout mice ([1]; mouse) | IC50 [2] [nM] | Ki [2] [nM] | Binding potential (BP) [3] | half-life ([4]; distribution half-life (biexponential)) [min] | half-life ([4]; elimination (β) half-life (biexponential)) [min] | half-life ([4]; plasma half-life (time in which the concentration of dye is 50% of initial)) [min] | displacement of retained DRM-800 by naloxone [5] | tolerability of intravenous injection [6] | distribution half-life (biexponential) ([6]; iv) | elimination (β) half-life (biexponential) ([6]; iv) | persistence in plasma ([6]; iv) | plasma half-life (time in which the concentration of dye is 50% of initial) ([6]; iv) [min] | half-life [7] [min] |
| --- | --- | --- | --- | --- | --- | --- | --- | --- | --- | --- | --- | --- | --- | --- | --- |
| C[C@@H](NC(=O)[C@@H](N)Cc1ccc(O)cc1)C(=O)N[C@@H](Cc1ccccc1)C(=O)NCC(=O)N[C@@H](Cc1ccc(O)cc1)C(=O)N1CCC[C@H]1C(=O)N[C@@H](CCCCN)C(=O)N[C@@H](CSC1CC(=O)N(CCNC(=O)CCCCC[N+]2=C(/C=C/C3=C(Oc4ccc(S(=O)(=O)O)cc4)C(=C/C=C4/N(CCCCS(=O)(=O)O)c5ccc(S(=O)(=O)O)cc5C4(C)C)/CCC3)C(C)(C)c3cc(S(=O)(=O)[O-])ccc32)C1=O)C(N)=O (stereo partly drawn) [DRM-800, [Lys7]dermorphin-IRDye800CW] | 3.1 | higher enhancement in the wildtype mice compared to knockout mice | 3.5 | 0.64 | approximately 10 | 3.3 | 70.8 | 7.95 | cannot be displaced even at high concentrations of naloxone | well-tolerated | 6.2 (4.9-8.6) min | 45 (33-68) min | at least one hour | 12.6 | – |
| C=CCN1CC[C@]23c4c5ccc(O)c4O[C@H]2C(=O)CC[C@@]3(O)[C@H]1C5 [naloxone] | – | – | – | – | – | – | – | – | – | – | – | – | – | – | 60 to 80 |
